# Literature values as cited in patent US11530434B2, “Cell mass evaluation method and device for analyzing state of cell mass” (HAMAMATSU PHOTONICS K.K., priority 2017, dated 2022).
# B1: TGF-β2: reagent “TGF-β2” whose addition acts on the cell morphology (reported in Non-Patent Document 3) (protein, UniProt P61812 303-414, looked up)
# Transforming growth factor …: ALDAAYCFRNVQDNCCLRPLYIDFKRDLGWKWIHEPKGYNANFCAGACPYLWSSDTQHSRVLSLYNTINPEASASPCCVSQDLEPLTILYYIGKTPKIEQLSNMIVKSCKCS
# Test system: cell morphology
# Conditions: compared to the control state
molecule,measurement,value
B1,change of cell shape on addition of the reagent,makes the cell shape elongated
